In US20240343803A1 (SHANDONG SIMCERE BIOPHARMACEUTICAL, published 2024):

Key:
[1] = target: T1, full-length human TIGIT on CHO-K1 cells (CHO-K1 human TIGIT) (human, UniProt Q495A1 22-244); experiment: FACS, high expression strain
T1 construct: NCBI XP_024309156.1; entry includes the signal peptide; also called high expression strain 1D2; medium expression strain 2D10
T1 sequence: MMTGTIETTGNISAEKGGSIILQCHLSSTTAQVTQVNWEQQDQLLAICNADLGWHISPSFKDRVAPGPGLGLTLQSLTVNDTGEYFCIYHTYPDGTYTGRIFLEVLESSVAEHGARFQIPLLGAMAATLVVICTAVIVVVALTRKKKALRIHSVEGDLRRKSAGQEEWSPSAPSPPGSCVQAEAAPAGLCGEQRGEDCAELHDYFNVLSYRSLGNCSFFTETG
Description: The collected cells were washed once with PBS (Hyclone, CAT #SH30256), resuspended to 2×10⁵/50 μL with 1% BSA-PBS. The antibodies were diluted to 80 nM with 1% BSA-PBS (diluted by 3-fold serial dilution for 12 concentration points). The 50 μL cells were then mixed with 50 μL diluted antibodies, and then incubated at 4° C. for 60 minutes. […] After washing twice with PBS, the cell samples were resuspended with 1% BSA-PBS, 100 μL/well and then analyzed by flow cytometry (BD, Canto II). […] [0298] (c) The effect of anti-TIGIT chimeric antibodies blocking the interaction between Bio-CD155-His and CHO-K1 human TIGIT high expression cell strains detected by FACS

[2] = target: T1, full-length human TIGIT on CHO-K1 cells …; experiment: FACS, CHO-K1 human TIGIT high expression strain
Description: The collected cells were washed once with PBS (Hyclone, Cat NO. SH30256), resuspended to 2×10⁵/50 μL with 1% BSA-PBS. The antibodies were diluted to 80 nM with 1% BSA-PBS (diluted by 3-fold serial dilution for 12 concentration points). The 50 μL cells were then mixed with 50 μL diluted antibodies, and then incubated at 4° C. for 60 minutes. […] After washing twice with PBS, the cell samples were resuspended with 1% BSA-PBS, 100 μL/well and then analyzed by flow cytometry (BD, Canto II).

[3] = target: T2, human TIGIT ECD-mFc (fusion protein of extracellular domain of human TIGIT and mouse IgG2a Fc fragment) (human); experiment: competition cell ELISA; blocked: TIGIT ECD-mFc binding to CHO-K1 CD155 cells
T2 chain: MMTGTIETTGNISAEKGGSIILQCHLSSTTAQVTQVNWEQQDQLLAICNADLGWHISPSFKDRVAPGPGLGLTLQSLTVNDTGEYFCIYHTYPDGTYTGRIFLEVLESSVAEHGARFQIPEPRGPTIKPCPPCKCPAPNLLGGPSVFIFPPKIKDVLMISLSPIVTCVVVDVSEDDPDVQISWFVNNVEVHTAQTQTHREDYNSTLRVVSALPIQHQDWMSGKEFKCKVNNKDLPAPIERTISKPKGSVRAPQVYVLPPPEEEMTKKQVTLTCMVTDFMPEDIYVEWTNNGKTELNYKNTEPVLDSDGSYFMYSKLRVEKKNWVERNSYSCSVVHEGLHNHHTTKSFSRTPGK
Description: After discarding the culture supernatant, the cells were fixed with a cell fixation solution (Beyotime, P0098), 50 μL/well, at room temperature for 1 hour. After washing once with 0.05% Tween 20-PBS on the Microplate Washer, the plate was added with 5% skim milk powder-PBS, 250 μL/well, and incubated at 37° C. for 2-4 hours. The plate was then washed 3 times with 0.05% Tween 20-PBS on the Microplate Washer. The sample were mixed with human TIGIT ECD-mFc (working concentration: 100 ng/mL) and incubated for 0.5 hour. The mixed solution of antigen and antibody was added to the cell plate (50 μL/well). The cells were incubated with the mixture at 37° C. for 1.5-2 hours and then washed with 0.05% Tween 20-PBS for 3 times on the Microplate Washer. […] After washing 3 times with 0.05% Tween 20-PBS on the Microplate Washer, the plate was added with TMB chromogenic solution (KPL, 52-00-03), 50 μL/well, and incubated at 37° C. for 10 minutes. 1M HCL, 50 µL/well, was then added into the plate to terminate the reaction, and the OD450 nm was read by a microplate reader (Biotek, Powerwave HT).

[4] = target: T1, full-length human TIGIT on CHO-K1 cells …; experiment: competition FACS; blocked: Bio-CD155-His binding to CHO-K1 human TIGIT cells
Description: The collected cells were washed once with PBS (Hyclone, SH30256), resuspended to 2×10⁵/40 μL with 1% BSA-PBS. The antibodies were diluted to 210 nM with 1% BSA-PBS (diluted by 3-fold serial dilution for 12 concentration points). […] The 40 μL cells were then mixed with 40 μL diluted antibodies and 40 μL diluted Bio-CD155-His, and then incubated at 4° C. for 60 minutes. The cells were washed twice with PBS, resuspended with APC labeled streptavidin (dilution ratio 1:1700, Biolegend, 405243), 100 μL/well, and incubated at 4° C. for 40 minutes. The cell samples were washed twice with PBS, resuspended with 1% BSA-PBS (100 μL/well) and then analyzed by flow cytometry (BD, Canto II).

EC50 [1]: 0.673 nM
EC50 (read off the curve) [2]: ~0.6 nM
IC50 (read off the curve) [3]: ~0.6 nM
IC50 (read off the curve) [4]: ~0.3 nM
B1: RG6058-hIgG1 (antibody, V domains shown)
VH: EVQLQQSGPGLVKPSQTLSLTCAISGDSVSSNSAAWNWIRQSPSRGLEWLGKTYYRFKWYSDYAVSVKGRITINPDTSKNQFSLQLNSVTPEDTAVFYCTRESTTYDLLAGPFDYWGQGTLVTVSS
VL: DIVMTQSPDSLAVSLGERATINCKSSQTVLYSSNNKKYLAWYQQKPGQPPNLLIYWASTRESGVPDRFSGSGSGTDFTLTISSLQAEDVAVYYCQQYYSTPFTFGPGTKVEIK
notes: human IgG1 format by its name; also called Roche RG6058; control antibody RG6058
